The target of the data set is T1, SarA (Staphylococcus aureus) (UniProt Q2G2U9).
T1 sequence: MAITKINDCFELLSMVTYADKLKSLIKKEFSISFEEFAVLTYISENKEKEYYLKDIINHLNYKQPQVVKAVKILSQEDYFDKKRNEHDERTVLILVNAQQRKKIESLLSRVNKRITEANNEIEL
The experiment in a line: EMSA. As to conditions: 2-5 ng radiolabeled P1 fragment; scale: fold more protein than SarR for complete shift. A general note: In EMSA bound probe runs differently from free probe, usually more slowly.

Among the data in patent US20050239704 are binding signal values, retold here.

For the substance sarA P1 promoter fragment (nt 531-859), the binding signal came out at 10.
